Laboratory results taken from patent publication US11071783 (DUKE UNIVERSITY, dated 2021).

B1: DH511.2 (antibody, V domains shown)
VH: QVQLVQSGGGLVKPGGSLTLSCSASGFFFDNSWMGWVRQAPGKGLEWVGRIRRLKDGATGEYGAAVKDRFTISRDDSRNMLYLHMRTLKTEDSGTYYCTMDEGTPVTRFLEWGYFYYYMAVWGRGTTVIVSS
VL: DIVMTQSPSSVSASVGDRVTITCRASQNIRDYLNWYQHKPGGSPRLLIYAASTLQTGVPSRFSGSGSGNLFTLTITNLQPEDFATYYCQENYNTIPSLSFGQGTKVDIR
notes: also called DH512; Ab510049

Key:
[1] = target: gp41 of HIV-1 isolate B.BG1168 Env (HIV-1); test: cell-based or functional assay
[2] = target: T1, STUB1 (STIP1 homology and U-box containing protein 1) (human, UniProt Q9UNE7 1-303); test: protein microarray of >9400 human proteins
T1 construct: also called E3 ubiquitin ligase STIP1 Homology and U-Box Containing Protein 1
T1 sequence (looked up): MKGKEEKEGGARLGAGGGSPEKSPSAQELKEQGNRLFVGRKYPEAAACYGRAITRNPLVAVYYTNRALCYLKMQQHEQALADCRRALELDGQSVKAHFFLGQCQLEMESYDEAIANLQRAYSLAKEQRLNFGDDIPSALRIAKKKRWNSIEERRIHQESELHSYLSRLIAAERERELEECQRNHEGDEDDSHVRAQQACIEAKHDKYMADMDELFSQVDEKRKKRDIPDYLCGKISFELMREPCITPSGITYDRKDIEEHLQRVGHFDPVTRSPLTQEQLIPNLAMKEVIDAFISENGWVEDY

Row | Molecule | lifetime of neutralization (t1/2), post-attachment TZM-bl assay with B.BG1168 [1] [min] | binding result [2]
1 | 4E10 (antibody) | 28.2 | 
2 | 10E8 (antibody) | 25.6 | 
3 | B1 |  | binds
